For test [1], the target named is HLA-B*57:01. Briefly: IEDB peptide-MHC binding, purified MHC/competitive/radioactivity; filed as Kd, often an IC50 or EC50 that approximates it; ≥ and ≤ were set here for values at or beyond the usual limits of such assays.
In test [2] the target is HLA-B*57:01. Briefly: IEDB peptide-MHC binding, purified MHC/competitive/radioactivity; ≥ and ≤ were set here for values at or beyond the usual limits of such assays.
[3] abbreviates: source organism: Human immunodeficiency virus 2.
[4] abbreviates: source organism: Mammarenavirus choriomeningitidis.
Setting [5] is: source organism: Simian immunodeficiency virus.

Broadly, the Kd is the constant that tells how readily two partners part at equilibrium. By IC50 is commonly meant the point on the concentration scale where inhibition reaches its midpoint.

With KVAKVEPAV, in the test with HLA-B*57:01 [1] (source organism: Homo sapiens), the Kd was not below 70 µM.

WIQLGLQKC: the Kd in the test with HLA-B*57:01 [1] (setting [3]) was not below 10 µM.

Regarding ATIKLQSTV, in the test with HLA-B*57:01 [2] (source organism: Homo sapiens), the IC50 was determined as 0.1 µM.

On to RVAGIHKKV, for which, in the test with HLA-B*57:01 [1] (source organism: Homo sapiens), the Kd is not below 70 µM.

For the sequence SIFLHLVKI, the IC50 in the test with HLA-B*57:01 [2] (setting [4]) worked out at 0.5 µM.

For the sequence MYGLKGPDI, in the test with HLA-B*57:01 [1] (setting [4]), the Kd was not below 50 µM.

With MFEALPHII, in the test with HLA-B*57:01 [1] (setting [4]), the Kd was not below 50 µM.

Consider SSCIAQDNC, for which, in the test with HLA-B*57:01 [1] (setting [5]), the Kd is not below 50 µM.

Take TVAPFNPTV: in the test with HLA-B*57:01 [2] (source organism: Homo sapiens), the IC50 came out at 1 µM.

KIYEGQVEV: the IC50 with HLA-B*57:01 [2] (source organism: Homo sapiens) came to 10 µM.

Take IVSSLHLSI: the IC50 with HLA-B*57:01 [2] (setting [4]) was 1 µM.

With ATCGIFALI, in the test with HLA-B*57:01 [2] (setting [4]), the IC50 is 0.2 µM.

As to RARQLNYTI, in the test with HLA-B*57:01 [2] (source organism: Homo sapiens), the half-inhibitory concentration (IC50) was 0.0137 µM.

As to KVGWAWWTC, the IC50 in the test with HLA-B*57:01 [2] (setting [3]) amounted to 3 µM.

As to VTTDIQVKV, the IC50 with HLA-B*57:01 [2] (source organism: Homo sapiens) is 2 µM.

On to KSNGTIIHV, for which the IC50 with HLA-B*57:01 [2] (source organism: Homo sapiens) amounted to 10 µM.

Consider QAQLNAWGC, for which, in the test with HLA-B*57:01 [1] (setting [5]), the Kd is not below 40 µM.

Turning to RTFHHGVRV, the IC50 with HLA-B*57:01 [2] (source organism: Homo sapiens) was found to be 0.2 µM.

With LKSLYNTVC, the equilibrium dissociation constant (Kd) with HLA-B*57:01 [1] (setting [5]) was not below 30 µM.

For LLHSTYFPC, the Kd in the test with HLA-B*57:01 [1] (setting [5]) was not below 50 µM.
